Here are results for 15 molecules from publication PMC8930183, “Structure of the Pf12 and Pf41 heterodimeric complex of Plasmodium falciparum 6-cysteine proteins” (FEMS Microbes, 2022).

Holding throughout (conditions): both partners purified
Assay [1] concerns the target T1, Pf41 D1D2 (residues 21-368), untagged (Plasmodium falciparum, UniProt Q8I1Y0).
T1 construct: Pf41, Plasmodium falciparum 6-cysteine protein, residues K21-S368 (D1 with the inserted-domain-like region ID, and D2); lacks the signal peptide and ten C-terminal residues; After TEV cleavage three residues, GAS, remain at the N-terminus as cloning artefacts; N-glycosylation sites kept; treated with PNGase F before crystallisation; also called Pf41 wildtype; source: Spodoptera frugiperda 21 …
The experiment in a line: BLI; Octet RED96e; nanobodies loaded on NTA sensors; untagged Pf12 or Pf41 (6-200 nM) or their domains in solution; PBS pH 7.4, 0.1% BSA, 0.05% TWEEN-20, 25°C; global 1:1 fit. Background: Biolayer interferometry detects binding as a change in optical thickness at a sensor tip.

For assay [2], the target named is T2, Pf12 D1D2 (residues 28-304), untagged (Plasmodium falciparum, UniProt C6KSX0).
T2 construct: Pf12, Plasmodium falciparum 6-cysteine protein, residues N28-S304 (domains D1 and D2); lacks the signal peptide and the GPI-anchor site; After TEV cleavage three residues, GAS, remain at the N-terminus as cloning artefacts; N-glycosylation sites kept; treated with PNGase F before crystallisation; also called Pf12 wildtype; source: Spodoptera frugiperda 21 cells, secreted into growth media, …
Described as above.

In assay [3] the target is T3, Pf12 D2 (residues E174-S304) (Plasmodium falciparum, UniProt C6KSX0).
T3 construct: Pf12, Plasmodium falciparum, C-terminal 6-cys domain D2, residues E174-S304; also called Pf12 D2 domain; source: Spodoptera frugiperda 21 cells, purified by the same protocol as Pf12 D1D2; not shown: His8, N-terminal, cleaved
Described as above.

Assay [4] addresses T4, octa-histidine tagged Pf41 D1D2 (residues 21-368) (Plasmodium falciparum, UniProt Q8I1Y0 21-368).
T4 construct: Pf41, Plasmodium falciparum 6-cysteine protein, residues K21-S368; TEV-cleavable tag left on; loaded on NTA sensors; also called tagged wildtype Pf41; source: Spodoptera frugiperda 21 cells, secreted into growth media, purified as tagged protein (Ni-IMAC, SEC); not shown: His8, N-terminal, kept
T4 sequence: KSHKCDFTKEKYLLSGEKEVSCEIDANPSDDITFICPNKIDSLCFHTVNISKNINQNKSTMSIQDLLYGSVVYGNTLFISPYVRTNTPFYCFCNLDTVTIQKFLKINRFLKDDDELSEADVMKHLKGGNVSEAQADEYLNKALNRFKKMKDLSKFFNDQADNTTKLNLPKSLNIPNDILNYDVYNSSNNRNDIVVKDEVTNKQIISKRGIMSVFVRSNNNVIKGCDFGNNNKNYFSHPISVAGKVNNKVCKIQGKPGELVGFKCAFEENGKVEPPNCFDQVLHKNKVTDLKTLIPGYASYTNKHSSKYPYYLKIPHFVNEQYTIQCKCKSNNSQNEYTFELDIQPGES
The experiment in a line: BLI; Octet RED96e; octa-histidine tagged Pf41 loaded on NTA sensors; untagged Pf12 wildtype, mutant or single domain 31-1000 nM; PBS pH 7.4, 0.1% BSA, 0.05% TWEEN-20, 25°C; read-out relative maximum response against wildtype.

The Kd is the constant that tells how readily two partners part at equilibrium. A higher Kd goes with weaker binding.

B1: nanobody B11 (VHH)
VHH: QVQLQESGGGLVQAGGSLRLSCAASGRTFSSYAMGWFRQAPGKEREFVAAISWNGGRTYYADSVKGRFTISRDNAKNTVYLQMNSLKPEDTAVYYCAADPTGTVDDETGIYVYWGQGTQVTVSS
notes: alpaca, immunised with Pf12-Pf41 complex; Pf12-specific; source: E. coli WK6, periplasmic extract, purified (HisTrap, SEC)
On to B1, for which the binding result in assay [1] is reported as “no binding”; in assay [2] it was “binds”; in assay [3], “binds”.

B2: nanobody D12 (VHH)
VHH: QVQLQESGGGLVEAGGSLRLSCAASTRTFSSLVMGWFRQAPGKERELVAAISRSGDSTDYTDSVKGRFTISRDNAKNTVYLQMNSLKPEDTAVYSCAADPTGVDSSLAVGLWVYWGQGTQVTVSS
notes: as for B1
Take B2: the results for the binding result in assay [1], in assay [2] and in assay [3] were “no binding”, “binds” and “binds”, respectively.

B3: nanobody C1 (VHH)
VHH: QVQLQESGGGLVQPGASLRLSCTVSGIIMADHAIGWFRQAPGKEREGIACFIRSDGTTYYSDSAKGRFTISRDNAKNTVYLQMNSLKPEDTADYYCATGKIVCANGFIVDYGSDYRGKGTQVTVSS
notes: as for B1
B3: the binding result was “no binding” in assay [1], “binds” in assay [2] and “binds” in assay [3].

B4: nanobody H11 (VHH)
VHH: QVQLQESGGGLVQPGGSLRLSCAGSGFTLDHYAIGWFRQAPGKEREGVSCIISSDSSTYYTDSVKGRFTISRDNAKNTVYLQMNSLKPEDTAVYYCATEKIVCASGFIVDYGMDYCGKGTQVTVSS
notes: as for B1
For the molecule B4, the binding result is listed as “no binding” in assay [1], “binds” in assay [2] and “binds” in assay [3].

B5: nanobody C9 (VHH)
VHH: QVQLQESGGGLVQPGGSLRLSCAASGFTLDYYAIGWFRQAPGKEREGVSCISSSGGSTYYADSVKGRSTISRDNAKNTVYLQMNSLKPEDTAVYYCATDCLRDYGLEYVPGRYDYWGQGTQVTVSS
notes: as for B1
On to B5, for which the binding result in assay [1] was “no binding”. The molecule further registered a Kd in assay [2] below 10 pM.

B6: nanobody C12 (VHH)
VHH: QVQLQESGGGLVQAGGSLRLSCAASGRTFSSYSMGWFRQAPGKQRELVAAISSGGSTDYTDSVKGRFTISRDNAKNTVYLQMNSLKPEDTAVYYCAAGDYSDYVGMWDIWGQGTQVTVSS
notes: as for B1
On to B6, for which the binding result in assay [1] is on record as “no binding”; in assay [2], “binds”; in assay [3], “binds”.

B7: nanobody B5 (VHH)
VHH: QVQLQESGGGLVQPGGSLRLSCAASGFTLDEYAMGWFRQAPGKEREGISCISSSDGTTFYADSVKGRFTISRDNAKNTVYLQMNSLKPEDTAVYYCATDCVGSYSRYWGQGTQVTVSS
notes: alpaca, immunised with Pf12-Pf41 complex; Pf12-specific; The 'Nb B5 of PDB ID 7KJH' used as a search model may be another nanobody of the same label; source: E. coli WK6, periplasmic extract, purified (HisTrap, SEC)
B7: the binding result in assay [1] was “no binding”. Also, the Kd in assay [2] was below 10 pM.

B8: nanobody A10 (VHH)
VHH: QVQLQESGGGFVQPGGSLRLSCAASGFTLDYYFIGWFRQAPGKEREGVSCISSSDGSTYYAESVKGRFTISRDNAKNTVYLQMNSLKPEDTAVYYCATDKIVCSSDFIVDYGMDSRGKGTQVTVSS
notes: as for B1
Regarding B8, the binding result in assay [1] is “no binding”. The same molecule gave a Kd in assay [2] below 10 pM.

B9: Pf12 D1D2 F241L (domain or fragment)
chain: NLTCDFNDVYKLEFHPNQQTSVTKLCNLTPNVLEKVTIKCGSDKLNYNLYPPTCFEEVYASRNMMHLKKIKEFVIGSSMFMRRSLTPNKINEVSFRIPPNMMPEKPIYCFCENKKTITINGSNGNPSSKKDIINRGIVEIIIPSLNEKVKGCDFTTSESTIFSKGYSINEISNKSSNNQQDIVCTVKAHANDLIGFKCPSNYSVEPHDCFVSALNLSGKNENLENKLKLTNIIMDHYNNTFYSRLPSLISDNWKFFCVCSKDNEKKLVFTVEASISS
notes: Pf12, Plasmodium falciparum, residues N28-S304 (D1D2); source: Spodoptera frugiperda 21 cells, purified (Ni-IMAC, TEV cleavage, SEC); not shown: His8, N-terminal, cleaved
For the molecule B9, in assay [4], the binding result is given as “binds”.

B10: Pf12 D1D2 R123A (domain or fragment)
chain: NLTCDFNDVYKLEFHPNQQTSVTKLCNLTPNVLEKVTIKCGSDKLNYNLYPPTCFEEVYASRNMMHLKKIKEFVIGSSMFMRRSLTPNKINEVSFAIPPNMMPEKPIYCFCENKKTITINGSNGNPSSKKDIINRGIVEIIIPSLNEKVKGCDFTTSESTIFSKGYSINEISNKSSNNQQDIVCTVKAHANDLIGFKCPSNYSVEPHDCFVSAFNLSGKNENLENKLKLTNIIMDHYNNTFYSRLPSLISDNWKFFCVCSKDNEKKLVFTVEASISS
notes: as for B9
For the molecule B10, the binding result in assay [4] was “binds”.

B11: Pf12 D1D2 R109A (domain or fragment)
chain: NLTCDFNDVYKLEFHPNQQTSVTKLCNLTPNVLEKVTIKCGSDKLNYNLYPPTCFEEVYASRNMMHLKKIKEFVIGSSMFMARSLTPNKINEVSFRIPPNMMPEKPIYCFCENKKTITINGSNGNPSSKKDIINRGIVEIIIPSLNEKVKGCDFTTSESTIFSKGYSINEISNKSSNNQQDIVCTVKAHANDLIGFKCPSNYSVEPHDCFVSAFNLSGKNENLENKLKLTNIIMDHYNNTFYSRLPSLISDNWKFFCVCSKDNEKKLVFTVEASISS
notes: as for B9
Turning to B11, in assay [4], the binding result is on record as “binds”.

B12: Pf12 D1D2 M108A (domain or fragment)
chain: NLTCDFNDVYKLEFHPNQQTSVTKLCNLTPNVLEKVTIKCGSDKLNYNLYPPTCFEEVYASRNMMHLKKIKEFVIGSSMFARRSLTPNKINEVSFRIPPNMMPEKPIYCFCENKKTITINGSNGNPSSKKDIINRGIVEIIIPSLNEKVKGCDFTTSESTIFSKGYSINEISNKSSNNQQDIVCTVKAHANDLIGFKCPSNYSVEPHDCFVSAFNLSGKNENLENKLKLTNIIMDHYNNTFYSRLPSLISDNWKFFCVCSKDNEKKLVFTVEASISS
notes: as for B9
Regarding B12, the binding result in assay [4] is given as “binds”.

B13: Pf12 D1D2 M106A (domain or fragment)
chain: NLTCDFNDVYKLEFHPNQQTSVTKLCNLTPNVLEKVTIKCGSDKLNYNLYPPTCFEEVYASRNMMHLKKIKEFVIGSSAFMRRSLTPNKINEVSFRIPPNMMPEKPIYCFCENKKTITINGSNGNPSSKKDIINRGIVEIIIPSLNEKVKGCDFTTSESTIFSKGYSINEISNKSSNNQQDIVCTVKAHANDLIGFKCPSNYSVEPHDCFVSAFNLSGKNENLENKLKLTNIIMDHYNNTFYSRLPSLISDNWKFFCVCSKDNEKKLVFTVEASISS
notes: as for B9
As for B13, the binding result in assay [4] is “binds”.

B14: Pf12 D1D2 H234A (domain or fragment)
chain: NLTCDFNDVYKLEFHPNQQTSVTKLCNLTPNVLEKVTIKCGSDKLNYNLYPPTCFEEVYASRNMMHLKKIKEFVIGSSMFMRRSLTPNKINEVSFRIPPNMMPEKPIYCFCENKKTITINGSNGNPSSKKDIINRGIVEIIIPSLNEKVKGCDFTTSESTIFSKGYSINEISNKSSNNQQDIVCTVKAHANDLIGFKCPSNYSVEPADCFVSAFNLSGKNENLENKLKLTNIIMDHYNNTFYSRLPSLISDNWKFFCVCSKDNEKKLVFTVEASISS
notes: as for B9
Take B14: the binding result in assay [4] is listed as “binds”.

B15: Pf12 D1D2 R110A (domain or fragment)
chain: NLTCDFNDVYKLEFHPNQQTSVTKLCNLTPNVLEKVTIKCGSDKLNYNLYPPTCFEEVYASRNMMHLKKIKEFVIGSSMFMRASLTPNKINEVSFRIPPNMMPEKPIYCFCENKKTITINGSNGNPSSKKDIINRGIVEIIIPSLNEKVKGCDFTTSESTIFSKGYSINEISNKSSNNQQDIVCTVKAHANDLIGFKCPSNYSVEPHDCFVSAFNLSGKNENLENKLKLTNIIMDHYNNTFYSRLPSLISDNWKFFCVCSKDNEKKLVFTVEASISS
notes: as for B9
B15: in assay [4], the binding result was “binds”.
